Measurements reported in PMC5681633, “SnO2 hollow nanotubes: a novel and efficient support matrix for enzyme immobilization” (Scientific Reports, 2017).

Substrate: CCCCCCCCCCCCCCCC(=O)Oc1ccc([N+](=O)[O-])cc1
Assay: hydrolysis assay, Michaelis-Menten nonlinear fit
Assay type: biochemical, Thermomyces lanuginosus
Conditions: free enzyme, optimum temperature and pH (50 °C, pH 8.5, 20 mM Tris-HCl), substrate 0.05-5.0 mM, p-NPP as the standard assay substrate
Description: hydrolysis assay, Michaelis-Menten nonlinear fit on Lipase from Thermomyces lanuginosus (Lipozyme TL 100 L)

B1: Lipase from Thermomyces lanuginosus (Lipozyme TL 100 L) (Thermomyces lanuginosus) (protein)
chain: EVSQDLFNQFNLFAQYSAAAYCGKNNDAPAGTNITCTGNACPEVEKADATFLYSFEDSGVGDVTGFLALDNTNKLIVLSFRGSRSIENWIGNLNFDLKEINDICSGCRGHDGFTSSWRSVADTLRQKVEDAVREHPDYRVVFTGHSLGGALATVAGADLRGNGYDIDVFSYGAPRVGNRAFAEFLTVQTGGTLYRITHTNDIVPRLPPREFGYSHSSPEYWIKSGTLVPVTRNDIVKIEGIDATGGNNQPNIPDIPAHLWYFGLIGTCL
notes: commercial secreted enzyme preparation (Novozymes), free (not immobilised)
Km: 710 ± 50 µM
